Data: US20240270846A1 (published 2024)
Positions count from the first letter of the chain named. Names may count otherwise.

B1: GLS3000 F55L one-arm antibody (antibody, human IgG1, kappa, L234A L235A, N297A, name in Kabat numbering)
light: DIVMTQSPLSLPVTPGEPASISCRSSQSLVHSNRNTYLHWYQQKPGQAPRLLIYKVSNRLSGVPDRFSGSGSGTDFTLKISRVEAEDVGVYYCGQGTQVPYTFGQGTKLEIKRTVAAPSVFIFPPSDEQLKSGTASVVCLLNNFYPREAKVQWKVDNALQSGNSQESVTEQDSKDSTYSLSSTLTLSKADYEKHKVYACEVTHQGLSSPVTKSFNRGEC
heavy: QVQLVESGGGVVQPGRSLRLSCAASGFTFSNAWMHWVRQAPGKGLEWVAQIKAKSNNYATYYAESVKGRFTISRDDSKNSLYLQMNSLKTEDTAVYYCRYVHYGAYYGVDAWGQGTTVTVSSASTKGPSVFPLAPSSKSTSGGTAALGCLVKDYFPEPVTVSWNSGALTSGVHTFPAVLQSSGLYSLSSVVTVPSSSLGTQTYICNVNHKPSNTKVDKKVEPKSCDKTHTCPPCPAPEAAGGPSVFLFPPKPKDTLMISRTPEVTCVVVDVSHEDPEVKFNWYVDGVEVHNAKTKPREEQYASTYRVVSVLTVLHQDWLNGKEYKCKVSNKALPAPIEKTISKAKGQPREPQVYTLPPSRCELTKNQVSLSCAVKGFYPSDIAVEWESNGQPENNYKTTPPVLDSDGSFFLVSKLTVDKSRWQQGNVFSCSVMHEALHNHYTQKSLSLSPDYKDDDDK
chain: EPKSSDKTHTCPPCPAPELLGGPSVFLFPPKPKDTLMISRTPEVTCVVVDVSHEDPEVKFNWYVDGVEVHNAKTKPREEQYNSTYRVVSVLTVLHQDWLNGKEYKCKVSNKALPAPIEKTISKAKGQPREPQVCTLPPSRDELTKNQVSLWCLVKGFYPSDIAVEWESNGQPENNYKTTPPVLDSDGSFFLYSKLTVDKSRWQQGNVFSCSVMHEALHNRYTQKSLSLSP
B2: GLS3000 F55M one-arm antibody (antibody, human IgG1, kappa, L234A L235A, N297A, name in Kabat numbering)
light: B1 light with L60M
heavy: B1 heavy
chain: B1 chain
B3: GLS3000 F55N one-arm antibody (antibody, human IgG1, kappa, L234A L235A, N297A, name in Kabat numbering)
light: B1 light with L60N
heavy: B1 heavy
chain: B1 chain
B4: GLS3000 F55P one-arm antibody (antibody, human IgG1, kappa, L234A L235A, N297A, name in Kabat numbering)
light: B1 light with L60P
heavy: B1 heavy
chain: B1 chain
B5: GLS3000 F55Q one-arm antibody (antibody, human IgG1, kappa, L234A L235A, N297A, name in Kabat numbering)
light: B1 light with L60Q
heavy: B1 heavy
chain: B1 chain
B6: GLS3000 F55R one-arm antibody (antibody, human IgG1, kappa, L234A L235A, N297A, name in Kabat numbering)
light: B1 light with L60R
heavy: B1 heavy
chain: B1 chain
B7: GLS3000 F55S one-arm antibody (antibody, human IgG1, kappa, L234A L235A, N297A, name in Kabat numbering)
light: B1 light with L60S
heavy: B1 heavy
chain: B1 chain
B8: GLS3000 F55T one-arm antibody (antibody, human IgG1, kappa, L234A L235A, N297A, name in Kabat numbering)
light: B1 light with L60T
heavy: B1 heavy
chain: B1 chain
B9: GLS3000 F55V one-arm antibody (antibody, human IgG1, kappa, L234A L235A, N297A, name in Kabat numbering)
light: B1 light with L60V
heavy: B1 heavy
chain: B1 chain
B10: GLS3000 F55W one-arm antibody (antibody, human IgG1, kappa, L234A L235A, N297A, name in Kabat numbering)
light: B1 light with L60W
heavy: B1 heavy
chain: B1 chain
B11: GLS3000 F55Y one-arm antibody (antibody, human IgG1, kappa, L234A L235A, N297A, name in Kabat numbering)
light: B1 light with L60Y
heavy: B1 heavy
chain: B1 chain
B12: GLS3000 G89A one-arm antibody (antibody, human IgG1, kappa, L234A L235A, N297A, name in Kabat numbering)
light: B1 light with L60F, G94A
heavy: B1 heavy
chain: B1 chain
B13: GLS3000 G89D one-arm antibody (antibody, human IgG1, kappa, L234A L235A, N297A, name in Kabat numbering)
light: B1 light with L60F, G94D
heavy: B1 heavy
chain: B1 chain
B14: GLS3000 G89E one-arm antibody (antibody, human IgG1, kappa, L234A L235A, N297A, name in Kabat numbering)
light: B1 light with L60F, G94E
heavy: B1 heavy
chain: B1 chain
B15: GLS3000 G89F one-arm antibody (antibody, human IgG1, kappa, L234A L235A, N297A, name in Kabat numbering)
light: B1 light with L60F, G94F
heavy: B1 heavy
chain: B1 chain
B16: GLS3000 G89H one-arm antibody (antibody, human IgG1, kappa, L234A L235A, N297A, name in Kabat numbering)
light: B1 light with L60F, G94H
heavy: B1 heavy
chain: B1 chain
B17: GLS3000 G89I one-arm antibody (antibody, human IgG1, kappa, L234A L235A, N297A, name in Kabat numbering)
light: B1 light with L60F, G94I
heavy: B1 heavy
chain: B1 chain
B18: GLS3000 G89K one-arm antibody (antibody, human IgG1, kappa, L234A L235A, N297A, name in Kabat numbering)
light: B1 light with L60F, G94K
heavy: B1 heavy
chain: B1 chain
B19: GLS3000 G89L one-arm antibody (antibody, human IgG1, kappa, L234A L235A, N297A, name in Kabat numbering)
light: B1 light with L60F, G94L
heavy: B1 heavy
chain: B1 chain
B20: GLS3000 G89M one-arm antibody (antibody, human IgG1, kappa, L234A L235A, N297A, name in Kabat numbering)
light: B1 light with L60F, G94M
heavy: B1 heavy
chain: B1 chain
B21: GLS3000 G89N one-arm antibody (antibody, human IgG1, kappa, L234A L235A, N297A, name in Kabat numbering)
light: B1 light with L60F, G94N
heavy: B1 heavy
chain: B1 chain
B22: GLS3000 G89P one-arm antibody (antibody, human IgG1, kappa, L234A L235A, N297A, name in Kabat numbering)
light: B1 light with L60F, G94P
heavy: B1 heavy
chain: B1 chain
B23: GLS3000 G89Q one-arm antibody (antibody, human IgG1, kappa, L234A L235A, N297A, name in Kabat numbering)
light: B1 light with L60F, G94Q
heavy: B1 heavy
chain: B1 chain
B24: GLS3000 G89R one-arm antibody (antibody, human IgG1, kappa, L234A L235A, N297A, name in Kabat numbering)
light: B1 light with L60F, G94R
heavy: B1 heavy
chain: B1 chain
B25: GLS3000 G89T one-arm antibody (antibody, human IgG1, kappa, L234A L235A, N297A, name in Kabat numbering)
light: B1 light with L60F, G94T
heavy: B1 heavy
chain: B1 chain
B26: GLS3000 G89V one-arm antibody (antibody, human IgG1, kappa, L234A L235A, N297A, name in Kabat numbering)
light: B1 light with L60F, G94V
heavy: B1 heavy
chain: B1 chain
B27: GLS3000 G89W one-arm antibody (antibody, human IgG1, kappa, L234A L235A, N297A, name in Kabat numbering)
light: B1 light with L60F, G94W
heavy: B1 heavy
chain: B1 chain
B28: GLS3000 G91A one-arm antibody (antibody, human IgG1, kappa, L234A L235A, N297A, name in Kabat numbering)
light: B1 light with L60F, G96A
heavy: B1 heavy
chain: B1 chain
B29: GLS3000 G91D one-arm antibody (antibody, human IgG1, kappa, L234A L235A, N297A, name in Kabat numbering)
light: B1 light with L60F, G96D
heavy: B1 heavy
chain: B1 chain
B30: GLS3000 G91E one-arm antibody (antibody, human IgG1, kappa, L234A L235A, N297A, name in Kabat numbering)
light: B1 light with L60F, G96E
heavy: B1 heavy
chain: B1 chain
B31: GLS3000 G91P one-arm antibody (antibody, human IgG1, kappa, L234A L235A, N297A, name in Kabat numbering)
light: B1 light with L60F, G96P
heavy: B1 heavy
chain: B1 chain
B32: GLS3000 G91S one-arm antibody (antibody, human IgG1, kappa, L234A L235A, N297A, name in Kabat numbering)
light: B1 light with L60F, G96S
heavy: B1 heavy
chain: B1 chain
B33: GLS3000 G91T one-arm antibody (antibody, human IgG1, kappa, L234A L235A, N297A, name in Kabat numbering)
light: B1 light with L60F, G96T
heavy: B1 heavy
chain: B1 chain

molecular target: T1, CD3 epsilon homodimer protein (UniProt P07766 23-126); experiment: SPR Biacore T200, CD3e homodimer on chip, antibody analyte;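 note: CD3 epsilon homodimer amine-coupled on CM4 sensor chip, antibodies injected as analyte at 25 °C in HBS-EP+, ratio ≥0.8 taken as binding retained versus unaltered parent antibody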
T1 construct: Construct of the homodimer is not described; also called CD3 (CD3 epsilon)
T1 sequence (P07766 23-126): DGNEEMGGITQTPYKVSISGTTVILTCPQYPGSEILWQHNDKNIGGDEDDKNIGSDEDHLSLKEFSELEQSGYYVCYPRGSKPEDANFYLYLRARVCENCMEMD

| Binder | ratio of amounts bound (altered form/GLS3000) |
| --- | --- |
| B1 | 0.76 |
| B2 | 0.8 |
| B3 | 0.98 |
| B4 | 1.16 |
| B5 | 0.91 |
| B6 | 1.31 |
| B7 | 0.69 |
| B8 | 0.41 |
| B9 | 0.71 |
| B10 | 0.69 |
| B11 | 0.92 |
| B12 | 1.13 |
| B13 | 0.33 |
| B14 | 0.26 |
| B15 | 1.09 |
| B16 | 0.7 |
| B17 | 1.07 |

| Binder | ratio of amounts bound (altered form/GLS3000) |
| --- | --- |
| B18 | 0.4 |
| B19 | 0.94 |
| B20 | 0.52 |
| B21 | 0.8 |
| B22 | 0.35 |
| B23 | 0.38 |
| B24 | 0.19 |
| B25 | 1.03 |
| B26 | 1.63 |
| B27 | 0.5 |
| B28 | 0.27 |
| B29 | 0.16 |
| B30 | 0.16 |
| B31 | 0.27 |
| B32 | 0.26 |
| B33 | 0.26 |
